The values below come from patent publication US20100092505A1, “Method for Shielding Functional Sites or Epitopes on Proteins” (priority 2005, published 2010).

The nature of data set [1]: Isoelectric point (pI) of chimeric peptides and gp41 mimetics. It counts as physicochemical.
Data set [2] deals with guinea pigs. Kind of data set: ELISA of sera from guinea pigs immunized under homologous and heterologous Prime/Boost regimens. The data set is classed as in vivo. To be noted: guinea pig serum; prime plus two boosts; PEGylated vaccine in both homologous and heterologous modality; QS21 adjuvant. As to the method: The Prime/Boost pair is shown below each group of bars. The ELISA geometric mean titers (GMT) against each antigen are a true reflection of the relative amount of antibodies with the corresponding specificity present in the serum.
Immunogenicity of the SMW-PEGylated vaccine—Animal studies were conducted in guinea pigs to compare the antibody response elicited by the non-PEGylated vaccine (CCIZN17)3 and the PEGylated vaccine (CCIPN17)3. The latter was used both in a homologous modality (i.e., using a priming injection with the antigen, followed by two boost injections with the same antigen) and a heterologous modality (i.e., using a priming injection with the non-PEGylated antigen (CCIZN17)3, followed by two boost injections with the PEGylated antigen (CCIPN17)3) (see FIG. 4). The PEGylated antigens were administered to the animals along with QS21 as an adjuvant (Antigenics; New York, N.Y.). Analysis of the immune response was performed by ELISA. To eliminate any bias due to differences in the absorption capacity of the antigens on the ELISA plate, all the capture antigens were biotinylated, and the ELISA plate was coated with streptavidin prior to the addition of the capture biotinylated molecules. […] This is identical in (CCIZN17)3 and (CCIPN17)3 and, accordingly, the measured GMT are identical when measured against either antigen.
Background: In an ELISA, binding on a coated surface is turned into a signal by an enzyme label.

The conditions of data set [3]: disulfide-linked trimer; refers to U.S. Provisional Applications 60/576,062 and 60/636,724; cited from earlier work.
For data set [4], the system named is patients. The note with it: cited from earlier work.

Where no end group is shown, it is not given here.

“(CCGGIEKKIEEIEKKIEEIEKKIEEIEKLLQLTVWGIKQLQARIL)3 [(CCEZN17)3]”: the pI in data set [1] (Table 6, gp41 mimetics) stood at 5.30.

“(CCGGIKKEIEAIKKEQEAIKKKIEAIEKLLQLTVWGIKQLQARIL)3 (not fully specified (N-terminus, C-terminus, bridges); printed as (CCGGIKKEIEAIKKEQEAIKKKIEAIEKLLQLTVWGIKQLQARIL)3; also: disulfide-linked trimer) [(CCIZN17)3]”: the “antibody response against the scaffold moiety (ELISA GMT, capture antigens (Biotin-CCIZ)3 and (Biotin-CCIP)3)” value in data set [2] is “comparable amounts against the whole antigen and the scaffold moiety alone”. In addition, the “stability relative to the non-covalent IZN17 trimeric coiled-coil” value in data set [3] is “more stable than the original IZN17 trimeric coiled-coil”.

With “AN-1792: Elan/Wyeth Aβ 1-42 peptide vaccine for Alzheimer disease, clinical trial discontinued”, the “therapeutic effect in the clinical trial” value in data set [4] (patients with high titers of Aβ antibodies) was “reduction of plaque and some limited stabilization of memory”. Further, the “adverse effect that led to discontinuation of the clinical trial” value in data set [4] (patients, attributed to a T-cell response to the COOH-terminal region of Aβ) is recorded as “severe brain inflammation problems”. For the same substance, the “induction of antibodies specific for the pathological form of Aβ” value in data set [4] (vaccinated patients) was “induced in the majority of patients”.

“IEKKIEEIEKKIEEIEKKIEEIEKLLQLTVWGIKQLQARIL [EZN17]” came in with a pI in data set [1] (chimeric N-peptide) of 5.2.

Turning to “IKKEIEAIKKEQEAIKKKIEAIEKLLQLTVWGIKQLQARIL [IZN17]”, the pI in data set [1] (chimeric N-peptide) was 10.7.
